Data: patent publication US20040171105A1

Molecular target: GST fusion form of full-length human cIAP1 (human) (UniProt Q13490)
Assay: cell-based or functional assay

Chain of GST fusion form of full-length human cIAP1 (human) (Q13490 whole entry, the tested form may be a part): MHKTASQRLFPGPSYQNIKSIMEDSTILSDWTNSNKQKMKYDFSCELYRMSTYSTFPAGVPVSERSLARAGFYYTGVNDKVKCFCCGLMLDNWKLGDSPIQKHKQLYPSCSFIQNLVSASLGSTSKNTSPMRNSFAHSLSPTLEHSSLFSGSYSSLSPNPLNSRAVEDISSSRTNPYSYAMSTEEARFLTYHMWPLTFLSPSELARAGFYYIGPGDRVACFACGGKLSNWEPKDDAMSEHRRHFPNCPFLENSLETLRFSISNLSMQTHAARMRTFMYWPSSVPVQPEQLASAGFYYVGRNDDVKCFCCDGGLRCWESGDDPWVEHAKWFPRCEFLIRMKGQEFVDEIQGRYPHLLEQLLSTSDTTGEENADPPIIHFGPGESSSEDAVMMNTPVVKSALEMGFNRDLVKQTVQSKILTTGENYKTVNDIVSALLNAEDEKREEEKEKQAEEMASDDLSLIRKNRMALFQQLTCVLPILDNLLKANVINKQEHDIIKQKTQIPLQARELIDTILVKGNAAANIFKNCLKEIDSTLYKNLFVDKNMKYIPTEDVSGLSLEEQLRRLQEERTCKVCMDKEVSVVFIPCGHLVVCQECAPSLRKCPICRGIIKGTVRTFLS

relief of cIAP1 inhibition of caspase activity in HeLa extracts: 75 nM
Substance: Omi SA (protease dead mutant Omi S306→Ala, C-terminal hexa-His tagged) (from UniProt O43464 134-458) (enzyme)
